Measurements from patent US20260250361A1 (HUAHUI HEALTH, published 2026).
Changes are numbered by the printed parent chain.

Columns and labels:
hFcγRIIIa (V158) [1] = target: T1, hFcγRIIIa (V158) (human, UniProt P08637 17-208); assay: Biacore; ratio against A14 WT
T1 construct: V at position 158; also called hFcγR3a V158
Experimental: (§1) Different concentrations of recombinant hFcγR were used as the mobile phase over the flow path to allow binding and dissociation with the antibodies on the chip at pH 7.0. The affinity was then calculated by fitting the data using a 1:1 Langmuir binding model.

hFcγRIa [2] = target: T2, hFcγRIa (human, UniProt P12314 16-288, limits assumed); assay: Biacore; ratio against A14 WT
T2 construct: Recombinant, Ni column purified; also called hFcγR1a; human FcγRI
T2 sequence (P12314 other isoform, or with tags, fused parts or gaps limits assumed): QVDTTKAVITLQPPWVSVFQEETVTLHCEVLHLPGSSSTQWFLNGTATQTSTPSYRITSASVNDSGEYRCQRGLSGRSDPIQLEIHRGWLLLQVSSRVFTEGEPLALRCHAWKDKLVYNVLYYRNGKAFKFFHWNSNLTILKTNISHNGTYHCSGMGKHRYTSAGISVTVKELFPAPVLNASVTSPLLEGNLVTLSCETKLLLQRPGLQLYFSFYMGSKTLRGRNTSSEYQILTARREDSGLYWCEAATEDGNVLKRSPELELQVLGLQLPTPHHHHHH
Experimental: as §1

hFcγRIIa (R131) [3] = target: T3, hFcγRIIa (R131) (human, UniProt P12318 34-217); assay: Biacore; ratio against A14 WT
T3 construct: also called hFcγR2a R131
T3 sequence: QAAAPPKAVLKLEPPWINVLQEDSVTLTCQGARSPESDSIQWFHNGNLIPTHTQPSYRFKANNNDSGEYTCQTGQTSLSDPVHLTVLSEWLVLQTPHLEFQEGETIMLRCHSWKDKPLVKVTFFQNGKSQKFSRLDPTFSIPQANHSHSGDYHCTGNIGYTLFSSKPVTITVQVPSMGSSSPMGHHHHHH
Experimental: as §1

hFcγRIIIa (F158) [4] = target: T4, hFcγRIIIa (F158) (human, UniProt P08637 17-208); assay: Biacore; ratio against A14 WT
T4 construct: F at position 158; also called hFcγR3a F158
T4 sequence (P08637 other isoform, or with tags, fused parts or gaps): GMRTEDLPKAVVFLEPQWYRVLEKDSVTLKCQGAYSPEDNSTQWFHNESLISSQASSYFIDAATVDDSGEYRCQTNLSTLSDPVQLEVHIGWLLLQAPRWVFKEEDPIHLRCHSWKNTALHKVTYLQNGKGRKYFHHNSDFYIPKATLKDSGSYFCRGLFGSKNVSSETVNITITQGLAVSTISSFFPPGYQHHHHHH
Experimental: as §1

hFcγRIIa (H131) [5] = target: T5, hFcγRIIa (H131) (human, UniProt P12318 34-217); assay: Biacore; ratio against A14 WT
T5 construct: also called hFcγR2a H131
T5 sequence: T3 sequence with R134H
Experimental: as §1

hFcγRIIb [6] = target: T6, hFcγRIIb (human, UniProt P31994 43-217); assay: Biacore; ratio against A14 WT
T6 construct: also called hFcγR2b
T6 sequence: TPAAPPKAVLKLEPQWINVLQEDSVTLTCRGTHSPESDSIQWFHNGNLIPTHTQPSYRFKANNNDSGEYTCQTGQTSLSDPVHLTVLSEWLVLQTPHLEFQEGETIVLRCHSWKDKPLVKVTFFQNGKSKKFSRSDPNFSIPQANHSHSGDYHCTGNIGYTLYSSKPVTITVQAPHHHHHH
Experimental: as §1

[7] = target: T7, antigen peptide NC36b (pre-S1); assay: ELISA on the antigen peptide NC36b (Pre-S1), panel title 'Binding to PreS1'
T7 construct: Synthesised by Beijing Zhongke Yaguang Biotechnology; also called target antigen Pre-S1

human FcRn [8] = target: T8, human FcRn (human, UniProt P55899 24-297; P61769 21-119); assay: Biacore; hFcRn amine-coupled on CM5 chip, antibody in mobile phase, pH 6.0, 1:1 Langmuir fit
T8 construct: beta-2-microglobulin is not mentioned; also called hFcRn; recombinantly expressed hFcRn
T8 sequence (P55899 24-297 limits assumed, chain 1 of 2): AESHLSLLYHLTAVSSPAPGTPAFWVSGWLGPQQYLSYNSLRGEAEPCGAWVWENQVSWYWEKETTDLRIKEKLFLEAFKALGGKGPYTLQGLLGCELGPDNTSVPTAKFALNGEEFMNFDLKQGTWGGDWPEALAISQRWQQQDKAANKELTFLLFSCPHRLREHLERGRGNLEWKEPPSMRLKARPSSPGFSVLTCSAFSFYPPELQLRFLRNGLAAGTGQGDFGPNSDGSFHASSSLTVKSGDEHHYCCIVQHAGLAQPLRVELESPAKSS
T8 sequence (P61769 21-119 limits assumed, chain 2 of 2): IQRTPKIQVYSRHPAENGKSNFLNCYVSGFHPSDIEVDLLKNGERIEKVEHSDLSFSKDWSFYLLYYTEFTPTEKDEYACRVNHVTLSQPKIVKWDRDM
Experimental: (§2) The affinity was then calculated by fitting the data using a 1:1 Langmuir binding model.

[9] = target: FcγRIIIa F158 on Jurkat/NFAT-luc2p/FcγRIIIa F158 cells (UniProt P08637 17-254, limits assumed); assay: cell-based or functional assay
[10] = target: Pre-S1 domain of the L protein on recombinant HBV D genotype virus (hepatitis B virus, D genotype); assay: cell-based or functional assay
[11] = target: T9, FcγRIIa R131 on Jurkat/NFAT-luc2p/FcγRIIa R131 cells (UniProt P12318 34-317); assay: cell-based or functional assay
T9 sequence (looked up): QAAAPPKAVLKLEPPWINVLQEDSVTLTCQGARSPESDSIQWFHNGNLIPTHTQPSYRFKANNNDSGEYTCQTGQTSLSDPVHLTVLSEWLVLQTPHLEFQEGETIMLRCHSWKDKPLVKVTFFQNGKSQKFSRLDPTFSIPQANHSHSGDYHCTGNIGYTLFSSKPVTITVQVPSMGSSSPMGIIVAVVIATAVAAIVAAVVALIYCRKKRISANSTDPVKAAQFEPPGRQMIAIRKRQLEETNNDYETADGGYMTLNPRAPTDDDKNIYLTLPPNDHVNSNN

human FcRn [12] = target: T8, human FcRn; assay: Biacore (SPR): hFcRn amine-coupled on a CM5 chip, antibody as mobile phase, pH 6.0, 1:1 Langmuir fit
Experimental: as §2

hFcγRIIIa (V158) [13] = target: T1, hFcγRIIIa (V158); assay: Biacore; antibody captured on Protein G CM5 chip, hFcγR in mobile phase, pH 7.0, 1:1 Langmuir fit
Experimental: as §1

hFcγRIa [14] = target: T2, hFcγRIa; assay: as above
Experimental: as §1

hFcγRIIa (R131) [15] = target: T3, hFcγRIIa (R131); assay: as above
Experimental: as §1

hFcγRIIIa (F158) [16] = target: T4, hFcγRIIIa (F158); assay: as above
Experimental: as §1

hFcγRIIa (H131) [17] = target: T5, hFcγRIIa (H131); assay: as above
Experimental: as §1

hFcγRIIb [18] = target: T6, hFcγRIIb; assay: as above
Experimental: as §1

T1 sequence (P08637 other isoform, or with tags, fused parts or gaps): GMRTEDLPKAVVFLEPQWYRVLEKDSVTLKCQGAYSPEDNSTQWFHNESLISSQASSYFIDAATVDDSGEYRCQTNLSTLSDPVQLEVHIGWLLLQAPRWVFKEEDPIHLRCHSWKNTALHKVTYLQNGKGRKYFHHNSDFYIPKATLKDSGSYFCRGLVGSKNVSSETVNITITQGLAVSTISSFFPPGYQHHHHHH

B1: afuco-A14 GA LS (antibody, human IgG1, lambda)
heavy: QVQLQQSGPGLVKPSQTLSLTCAISGDSVSSNSAAWNWIRQSPSRGLEWLGRTYYRSKWYNDYAVSVKSRITINPDTSKNQFSLQLNSVTPEDTAVYYCARGTRWGMDVWGQGTLVTVSSASTKGPSVFPLAPSSKSTSGGTAALGCLVKDYFPEPVTVSWNSGALTSGVHTFPAVLQSSGLYSLSSVVTVPSSSLGTQTYICNVNHKPSNTKVDKKVEPKSCDKTHTCPPCPAPELLAGPSVFLFPPKPKDTLMISRTPEVTCVVVDVSHEDPEVKFNWYVDGVEVHNAKTKPREEQYNSTYRVVSVLTVLHQDWLNGKEYKCKVSNKALPAPIEKTISKAKGQPREPQVYTLPPSRDELTKNQVSLTCLVKGFYPSDIAVEWESNGQPENNYKTTPPVLDSDGSFFLYSKLTVDKSRWQQGNVFSCSVLHEALHSHYTQKSLSLSPGK
light: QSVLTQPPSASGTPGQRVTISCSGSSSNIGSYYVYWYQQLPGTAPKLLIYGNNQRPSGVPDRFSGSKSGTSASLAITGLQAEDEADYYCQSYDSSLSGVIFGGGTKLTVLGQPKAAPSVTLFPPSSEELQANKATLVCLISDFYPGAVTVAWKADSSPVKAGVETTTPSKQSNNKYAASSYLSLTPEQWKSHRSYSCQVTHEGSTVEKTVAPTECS
modifications: Afucosylated modification (expressed in Fut8-knockout FCC# cells)
notes: IgG1
- Fold (KD of A14 WT over KD of afuco-A14 GA LS) (hFcγRIIIa (V158) [1]): 7.89 fold
- Fold (KD of A14 WT over KD of afuco-A14 GA LS) (hFcγRIa [2]): 0.41 fold
- Fold (KD of A14 WT over KD of afuco-A14 GA LS) (hFcγRIIa (R131) [3]): 3.83 fold
- Fold (KD of A14 WT over KD of afuco-A14 GA LS) (hFcγRIIIa (F158) [4]): 11 fold
- Fold (KD of A14 WT over KD of afuco-A14 GA LS) (hFcγRIIa (H131) [5]): 4.63 fold
- Fold (KD of A14 WT over KD of afuco-A14 GA LS) (hFcγRIIb [6]): 0.76 fold
- EC50 (read off the curve) [7]: ~0.02 µg/mL
- fold change in KD against A14 WT (human FcRn [8]): 3.4 fold
- ADCC activity, fold enhancement compared to A14 (Jurkat/NFAT-luc2p/FcγRIIIa F158 reporter) [9]: 18.6 fold
- IC50 of inhibition of HBV infection of HepG2-hNTCP cells (HBeAg secretion) [10]: ~0.011 µg/mL
- ADCP activity, fold enhancement compared to A14 (Jurkat/NFAT-luc2p/FcγRIIa R131 reporter) [11]: ≥ 4.7 fold
- Kd (human FcRn [12]): 6.46 nM
- Kd (hFcγRIIIa (V158) [13]): 123 nM
- Kd (hFcγRIa [14]): 173 nM
- Kd (hFcγRIIa (R131) [15]): 204 nM
- Kd (hFcγRIIIa (F158) [16]): 588 nM
- Kd (hFcγRIIa (H131) [17]): 169 nM
- Kd (hFcγRIIb [18]): 7470 nM
